From patent publication US20240124595A1 (UNIVERSITY OF SASKATCHEWAN, published 2024) come the findings set out here.

The target in experiment [1] is T1, recombinant murine IGF2R domains 11-13 Fc fusion protein (murine; human, UniProt Q07113 1504-1982).
T1 construct: Soluble Fc fusion expressed in Expi293F; also called murine IGF2R fragment; not shown: human IgG1 Fc from a modified pFUSE-hIgG1-Fc2 vector (Invivogen)
The experiment is described as follows: competitive Fab-phage ELISA, same protein in solution as competitor. A general note: In an ELISA, binding on a coated surface is turned into a signal by an enzyme label.

The target in experiment [2] is T2, recombinant canine IGF2R domains 11-13 Fc fusion protein (canine; human).
T2 construct: Soluble Fc fusion expressed in Expi293F; also called canine IGF2R fragment; not shown: human IgG1 Fc from a modified pFUSE-hIgG1-Fc2 vector (Invivogen)
T2 chain: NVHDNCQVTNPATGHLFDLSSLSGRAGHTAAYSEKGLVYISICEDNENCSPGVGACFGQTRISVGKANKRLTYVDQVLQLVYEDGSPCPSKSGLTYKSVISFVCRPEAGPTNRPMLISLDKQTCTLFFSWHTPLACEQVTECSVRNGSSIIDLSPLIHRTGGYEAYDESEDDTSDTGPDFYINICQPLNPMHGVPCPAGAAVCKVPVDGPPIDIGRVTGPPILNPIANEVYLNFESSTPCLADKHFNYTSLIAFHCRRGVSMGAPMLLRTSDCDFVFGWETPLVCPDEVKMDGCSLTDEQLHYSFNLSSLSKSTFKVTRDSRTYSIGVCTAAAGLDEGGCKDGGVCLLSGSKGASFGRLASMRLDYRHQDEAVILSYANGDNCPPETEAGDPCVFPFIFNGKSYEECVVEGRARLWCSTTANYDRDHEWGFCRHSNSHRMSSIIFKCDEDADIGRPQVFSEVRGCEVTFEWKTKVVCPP
The experiment is described as above.

In experiment [3] the target is T3, recombinant human IGF2R domains 11-13 Fc fusion protein (human, UniProt P11717 1511-1989).
T3 construct: Soluble Fc fusion expressed in Expi293F; also called human IGF2R fragment; not shown: human IgG1 Fc from a modified pFUSE-hIgG1-Fc2 vector (Invivogen)
The experiment is described as follows: phage ELISA on recombinant IGF2R Fc fusion.

Experiment [4] deals with T1, recombinant murine IGF2R domains 11-13 …. The experiment in a line: ELISA on coated recombinant IGF2R.
Experiment [5] concerns the target T2, recombinant canine IGF2R domains 11-13 …. The experiment is described as follows: ELISA on coated recombinant IGF2R.
For experiment [6], the target named is T3, recombinant human IGF2R domains 11-13 …. The experiment is described as follows: ELISA on coated recombinant IGF2R.
The target in experiment [7] is T4, human IGF2R on human osteosarcoma cells (human, UniProt P11717 41-2491).
T4 construct: whole, on cells; Endogenous receptor on tumour cell lines, not transfected cells; also called OS-33
The experiment is described as follows: flow cytometry on human OS cell lines.

In experiment [8] the target is T3, recombinant human IGF2R domains 11-13 …. The experiment in a line: competitive Fab-phage ELISA, same protein in solution as competitor.
In experiment [9] the target is T5, recombinant murine IGF2R domains 11-13 Fc fusion protein (UniProt Q07113 1504-1982).
T5 chain: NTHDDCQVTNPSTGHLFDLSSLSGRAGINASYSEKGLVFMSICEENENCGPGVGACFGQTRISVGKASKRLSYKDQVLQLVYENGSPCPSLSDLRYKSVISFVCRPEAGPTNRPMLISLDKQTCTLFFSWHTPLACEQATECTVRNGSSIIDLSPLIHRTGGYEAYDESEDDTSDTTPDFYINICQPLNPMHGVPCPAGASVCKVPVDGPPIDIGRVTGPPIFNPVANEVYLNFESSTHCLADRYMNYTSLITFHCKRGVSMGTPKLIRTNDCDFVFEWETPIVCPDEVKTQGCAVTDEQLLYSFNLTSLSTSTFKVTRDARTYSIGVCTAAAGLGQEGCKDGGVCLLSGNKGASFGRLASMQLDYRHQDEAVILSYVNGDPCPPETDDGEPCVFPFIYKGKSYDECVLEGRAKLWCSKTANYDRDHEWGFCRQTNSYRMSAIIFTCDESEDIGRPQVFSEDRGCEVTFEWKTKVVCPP
The experiment is described as follows: ELISA; printed as "IC 50 or EC 50".

Experiment [10] has as its target T6, recombinant canine IGF2R domains 11-13 Fc fusion protein.
T6 chain: T2 chain
The experiment is described as follows: ELISA; printed as "IC 50 or EC 50".

Experiment [11] deals with T7, recombinant human IGF2R domains 11-13 Fc fusion protein (UniProt P11717 1511-1989).
T7 chain: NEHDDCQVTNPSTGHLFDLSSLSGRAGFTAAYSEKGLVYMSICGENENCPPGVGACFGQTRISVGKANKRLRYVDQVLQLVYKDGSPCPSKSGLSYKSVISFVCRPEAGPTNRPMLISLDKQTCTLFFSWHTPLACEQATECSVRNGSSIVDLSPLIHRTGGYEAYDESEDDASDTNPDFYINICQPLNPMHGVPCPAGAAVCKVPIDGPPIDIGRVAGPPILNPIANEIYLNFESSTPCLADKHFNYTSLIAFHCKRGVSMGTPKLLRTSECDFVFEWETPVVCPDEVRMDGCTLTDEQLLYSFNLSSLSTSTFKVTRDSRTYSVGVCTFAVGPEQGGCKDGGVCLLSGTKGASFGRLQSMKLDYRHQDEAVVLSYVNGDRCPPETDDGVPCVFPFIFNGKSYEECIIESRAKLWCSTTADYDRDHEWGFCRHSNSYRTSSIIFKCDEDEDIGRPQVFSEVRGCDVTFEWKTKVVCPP
The experiment in a line: ELISA; printed as "IC 50 or EC 50".

T4 sequence (P11717 41-2491): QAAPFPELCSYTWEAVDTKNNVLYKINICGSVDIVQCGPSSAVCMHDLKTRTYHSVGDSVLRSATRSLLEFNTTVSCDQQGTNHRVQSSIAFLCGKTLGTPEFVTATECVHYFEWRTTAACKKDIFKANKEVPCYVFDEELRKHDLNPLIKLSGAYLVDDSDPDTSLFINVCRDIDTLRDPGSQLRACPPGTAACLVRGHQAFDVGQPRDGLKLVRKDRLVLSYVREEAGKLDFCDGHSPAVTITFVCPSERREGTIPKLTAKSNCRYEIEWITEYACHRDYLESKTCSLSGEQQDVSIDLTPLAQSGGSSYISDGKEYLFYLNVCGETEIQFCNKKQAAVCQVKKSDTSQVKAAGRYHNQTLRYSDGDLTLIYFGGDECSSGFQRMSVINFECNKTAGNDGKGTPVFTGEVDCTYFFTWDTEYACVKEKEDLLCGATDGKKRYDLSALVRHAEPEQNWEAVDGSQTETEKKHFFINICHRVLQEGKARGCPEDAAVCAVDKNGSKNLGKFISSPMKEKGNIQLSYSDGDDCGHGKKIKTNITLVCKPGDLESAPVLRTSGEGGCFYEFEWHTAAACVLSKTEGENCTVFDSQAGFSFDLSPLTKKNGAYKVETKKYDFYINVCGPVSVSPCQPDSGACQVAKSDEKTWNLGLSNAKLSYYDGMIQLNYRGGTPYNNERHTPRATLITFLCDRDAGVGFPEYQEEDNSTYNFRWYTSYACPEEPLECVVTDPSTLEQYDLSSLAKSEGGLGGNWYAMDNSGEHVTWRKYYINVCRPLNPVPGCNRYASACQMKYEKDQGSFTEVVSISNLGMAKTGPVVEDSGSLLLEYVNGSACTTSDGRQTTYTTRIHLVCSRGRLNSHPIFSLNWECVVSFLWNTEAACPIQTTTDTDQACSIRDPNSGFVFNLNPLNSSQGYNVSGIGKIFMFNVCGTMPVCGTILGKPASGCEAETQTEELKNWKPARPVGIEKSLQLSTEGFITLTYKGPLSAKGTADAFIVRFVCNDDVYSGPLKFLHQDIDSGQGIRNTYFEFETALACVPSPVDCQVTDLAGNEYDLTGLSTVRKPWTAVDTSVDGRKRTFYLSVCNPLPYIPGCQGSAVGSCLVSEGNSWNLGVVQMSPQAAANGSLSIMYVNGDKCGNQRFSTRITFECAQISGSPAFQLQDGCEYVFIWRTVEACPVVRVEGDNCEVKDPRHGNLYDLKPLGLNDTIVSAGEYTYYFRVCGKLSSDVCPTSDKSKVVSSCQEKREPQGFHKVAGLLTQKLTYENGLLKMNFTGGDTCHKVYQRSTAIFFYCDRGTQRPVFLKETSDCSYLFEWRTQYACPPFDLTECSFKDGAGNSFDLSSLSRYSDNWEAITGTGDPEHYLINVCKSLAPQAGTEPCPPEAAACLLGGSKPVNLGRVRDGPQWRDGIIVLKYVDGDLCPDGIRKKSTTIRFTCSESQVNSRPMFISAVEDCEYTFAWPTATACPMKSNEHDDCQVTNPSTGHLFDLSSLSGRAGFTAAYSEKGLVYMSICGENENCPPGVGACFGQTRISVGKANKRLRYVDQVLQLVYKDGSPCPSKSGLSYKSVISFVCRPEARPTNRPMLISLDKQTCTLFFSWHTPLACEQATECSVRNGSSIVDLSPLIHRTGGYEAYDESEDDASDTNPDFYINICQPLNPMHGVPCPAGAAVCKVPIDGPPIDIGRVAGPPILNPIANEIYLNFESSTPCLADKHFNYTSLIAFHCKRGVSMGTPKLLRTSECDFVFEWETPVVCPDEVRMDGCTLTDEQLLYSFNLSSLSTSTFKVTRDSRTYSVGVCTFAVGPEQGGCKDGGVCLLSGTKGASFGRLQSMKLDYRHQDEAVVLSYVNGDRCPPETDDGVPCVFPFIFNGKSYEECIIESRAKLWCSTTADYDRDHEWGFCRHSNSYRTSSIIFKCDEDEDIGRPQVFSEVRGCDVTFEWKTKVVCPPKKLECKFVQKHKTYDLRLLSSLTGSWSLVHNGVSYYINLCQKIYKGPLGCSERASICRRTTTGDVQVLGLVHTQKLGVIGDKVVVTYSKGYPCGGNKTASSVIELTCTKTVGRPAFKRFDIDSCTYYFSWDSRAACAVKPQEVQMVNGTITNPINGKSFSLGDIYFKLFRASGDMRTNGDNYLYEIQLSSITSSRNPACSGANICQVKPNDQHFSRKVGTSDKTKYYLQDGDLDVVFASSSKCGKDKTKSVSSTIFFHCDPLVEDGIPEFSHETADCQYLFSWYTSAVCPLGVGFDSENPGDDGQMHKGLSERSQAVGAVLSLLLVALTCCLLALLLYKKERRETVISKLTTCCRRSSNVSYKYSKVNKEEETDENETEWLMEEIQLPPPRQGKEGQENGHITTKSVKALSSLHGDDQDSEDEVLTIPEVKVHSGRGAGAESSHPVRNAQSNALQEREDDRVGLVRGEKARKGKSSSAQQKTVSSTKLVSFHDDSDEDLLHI

B1: IGF2R-Fab-1 (Fab, V domains shown)
VH: EVQLVESGGGVVQPGGSLRLSCAASGFTFSSYAMHWVRQAPGKGLEWVAVISYDGSNKYYADSVKGRFTISRDNSKNTLYLQMNSLRAEDTAVYYCARDDRFFGGMDVWGQGTTVTVSS
VL: AIRMTQSPSSLSASVGDRVTITCRASQDISSWLAWYQQKPDKAPKSLIYAASSLEDGVPSRFSGSGSGTDFTLTISSLQAEDFATYYCQQYNTYPWTFGQGTKVEIK
notes: From the naive library (VH3-30 / VK1); also called Fab-phage
Turning to B1, the binding result in experiment [1], in [2] and in experiment [3] was “binds” throughout.

B2: IF1 (antibody, human IgG1, kappa, V domains shown)
VH: B1 VH
VL: AIRMTQSPSSLSASVGDRVTITCRASQDISSWLAWYQQKPDKAPKSLIYAASSLEDGVPSRFSGSGSGTDFTLTISSLQAEDFATYYCQQYNTYPWTFGQGTKVEIKR
notes: Full-length human IgG1 kappa expressed in Expi293F cells; also called IGF2R-IgG#1; full-size human IgG from Fab1
In the case of B2, the binding result in experiment [4], in [5], in [6] and in experiment [7] was “binds” each time.

B3: IGF2R-Fab-2 (Fab, V domains shown)
VH: EVQLVESGGGLVQPGGSLRLSCAASGFNIKYTYIHWVRQAPGKGLEWVALIDPHYGFTRYADSVKGRFTISADTSKNTAYLQMNSLRAEDTAVYYCSRWYYDHAMDYWGQGTLVTVSS
VL: DIQMTQSPSSLSASVGDRVTITCRASQLVDTAVAWYQQKPGKAPKLLIYFASYLYSGVPSRFSGSRSGTDFTLTISSLQPEDFATYYCQQVVYYPPTFGQGTKVEIK
notes: From the synthetic 4D5-8 (trastuzumab framework) library; also called Fab-phage
For the molecule B3, the binding result in [1], in experiment [2] and in [8] was “binds” throughout.

B4: IF3 (antibody, human IgG1, kappa, V domains shown)
VH: EVQLVESGGGLVQPGGSLRLSCAASGFNIKDTYIHWVRQAPGKGLEWVAFIDPIFGDTRYADSVKGRFTISADTSKNTAYLQMNSLRAEDTAVYYCSRWGGDGFYAMDYWGQGTLVTVSS
VL: DIQMTQSPSSLSASVGDRVTITCRASQDVNTAVAWYQQKPGKAPKLLIYSASFLYSGVPSRFSGSRSGTDFTLTISSLQPEDFATYYCQQAYFFHHFPPTFGQGTKVEIKR
notes: Full-length human IgG1 kappa expressed in Expi293F cells; also called 1F3; IGF2R-IgG#3
Take B4: the binding result in experiment [4], in [5], in experiment [6] and in experiment [7] was “binds” in each case. For the same molecule, the half-maximal effective concentration (EC50) in experiment [9] stood at 3.06 nM; in [10], 3.22 nM; in [11] it was 1.14 nM.

B5: IGF2R-Fab-3 (Fab, V domains shown)
VH: B4 VH
VL: DIQMTQSPSSLSASVGDRVTITCRASQDVNTAVAWYQQKPGKAPKLLIYSASFLYSGVPSRFSGSRSGTDFTLTISSLQPEDFATYYCQQAYFFHHFPPTFGQGTKVEIK
notes: as for B3
Take B5: the binding result in [1], in experiment [2] and in experiment [8] was “binds” throughout.

The term EC50 denotes the midpoint of the concentration-response curve.
